Measurements as given in patent publication US20130059773A1 (published 2013).

Target: T1, Proliferating Cell Nuclear Antigen (PCNA), wild type, cellular (cytosolic PCNA of human neutrophils) (human, UniProt P12004 1-261)
T1 construct: Endogenous protein in human neutrophil cytosol in the co-immunoprecipitations; Expressed from pcDNA3-PCNA in PLB985 cells in the caspase-9 activity row; also called cytoplasmic PCNA; PLB985-PCNA (overexpressed form)
Assay: co-immunoprecipitation from neutrophil cytosol, western blot

T1 sequence (P12004 whole entry): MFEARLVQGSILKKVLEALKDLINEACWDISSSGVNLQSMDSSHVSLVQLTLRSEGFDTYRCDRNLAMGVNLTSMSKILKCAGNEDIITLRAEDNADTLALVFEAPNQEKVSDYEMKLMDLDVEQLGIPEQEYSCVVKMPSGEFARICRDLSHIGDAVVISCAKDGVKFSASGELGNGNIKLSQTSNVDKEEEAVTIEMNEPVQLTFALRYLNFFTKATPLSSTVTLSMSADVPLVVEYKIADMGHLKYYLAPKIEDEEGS

binding result: no binding
B1: Bid (other, human, UniProt P55957 1-195, looked up)
chain: MDCEVNNGSSLRDECITNLLVFGFLQSCSDNSFRRELDALGHELPVLAPQWEGYDELQTDGNRSSHSRLGRIEADSESQEDIIRNIARHLAQVGDSMDRSIPPGLVNGLALQLRNTSRSEEDRNRDLATALEQLLQAYPRDMEKEKTMLVLALLLAKKVASHTPSLLRDVFHTTVNFINQNLRTYVRSLARNGMD
